Source: US20250032605A1 (GENERAL HOSPITAL, published 2025)
Where two headings read alike, the source gives them in different places.

How the values were obtained:
Experiment in all cases: BLI with recombinant Fabs, drawn table of KD (µM)
[1] = target: T1, SARS-2 RBD (wild-type SARS-CoV-2 receptor binding domain, monomer) (SARS-CoV-2, UniProt P0DTC2 319-529)
RaTG13 [2] = target: RaTG13
[3] = target: T1, SARS-2 RBD (wild-type SARS-CoV-2 …); remark: listed apart in the source
RaTG13 [4] = target: RaTG13; remark: listed apart in the source
SHC014 [5] = target: SHC014
[6] = target: T2, WIV1 RBD (WIV1-CoV receptor binding domain, monomer) (WIV1-CoV)
[7] = target: T3, SARS-1 RBD (SARS-CoV receptor binding domain, monomer) (SARS-CoV (SARS-1), UniProt P59594 306-515)
SHC014 [8] = target: SHC014; remark: listed apart in the source
[9] = target: T2, WIV1 RBD (WIV1-CoV receptor binding …); remark: listed apart in the source
[10] = target: T3, SARS-1 RBD (SARS-CoV receptor binding …); remark: listed apart in the source

Row | Binder | Kd [1] [nM] | Kd (RaTG13 [2]) [nM] | Kd [3] [nM] | Kd (RaTG13 [4]) [µM] | Kd (SHC014 [5]) [nM] | Kd [6] [nM] | Kd [7] [nM] | Kd (SHC014 [8]) [µM] | Kd [9] [µM] | Kd [10] [µM]
1 | Ab15 Fab (Fab, V domains shown) VH: EVQLQQSGPELVKPGASVKISCKASGYSFTGYYMNWVKQSPEKSLEWIGEINPNFGGTTYNQKFKAKATLTVDKSSSTAYMQLKSLTSEDSAVYYCARYYGNLYAMDYWGQGTSVTVS VL: DILMTQSPSSMSVSLGDTVSITCHASQGISSNIGWLQQKPGKSFKGLIYHGTNLEDGVPSRFSGSGSGAAYSLTISSLESEDFADYYCVQYTHFPYTFGGGTKLEIK | 1100 | 1200 | 1100 | 1.2 | – | – | – | – | – | –
2 | Ab19 Fab (Fab, V domains shown) VH: QVQLQQSGAELARPGASVKLSCKASGYPFTSYGINWVKQRTGQGLEWIGEIYPRIGNTYYNEKFKGKATLTADKSSSTAYMEFRSLTSEDSAVYFCARSWNSNYGEYYFDYWGQGTTLTVS VL: DIVMTQSHKFMSTSIGDRVSITCKASHDVSTAVAWYQQKPGQSPKLLIYWASTRHTGVPDRFTGSGSGTDYTLTIRSVQAEDLALYYCQQHYSTPYTFGGGTKLEIK | 2000 | > 100000 | 2000 | > 100 | > 100000 | > 100000 | > 100000 | > 100 | > 100 | > 100
3 | Ab20 Fab (Fab, V domains shown) VH: EVQLQQSGPELVKPGASVKISCKASGFSFTGYSMNWMKQSPEKSLEWIGEINPTTGGTTYNQKFKAKATLTVDKSSSTAYIQLKSLTSEDSAVYYCARGRADYWGQGTTLTVSS VL: DIVLTQSPASLAVSLGQRATISCRASESVEYYGTGLVQWFQQKPGQPPKLLIYAASNVESGVPARFSGSGSGTDFSLNIHSVEEDDIAMYFCHQSRKLPWTFGGGTKLEIK | 30 | > 100000 | – | > 100 | > 100000 | > 100000 | > 100000 | > 100 | > 100 | > 100
4 | Ab16 Fab (Fab, V domains shown) VH: EVQLQQSGPELVKPGASVKISCKASGYSFNNYYMNWVKQSPEKSLEWIGEINPNSGYTSYNQKFRAKATLTVDKSSTTAYMQLKSLTSEDSAVYYCARYFGNLFAMDFWGQGTSVTVS VL: DILMTQSPSSMSVSLGDTVSITCHASQGIGSNIGWLQQKPGKSFKGLIYLGTNLEDGVPSRFSGSGSGADYSLTISSLESEDFADYYCVQYVQFPYTFGGGTKLEIK | 30 | 200 | – | – | 90 | 210 | 100 | – | – | –
5 | Ab17 Fab (Fab, V domains shown) VH: EVQLQQSGPELVKPGASVKISCKASGYSFTDYYMNWVKQSPEKSLEWIGEINPNTGGTTYNQKFKAKATLTVDKSSSTAYMQLKSLTSEDSAVYYCARYYGNLYAMDYWGQGTSVTVSS VL: DILMTQSPSSMSVSLGDTVSITCHASQGISSNIGWLQQKPGKSFKGLIYHGTNLEDGVPSRFSGSGSGADYSLTISSLESEDFADYYCVQYVQFPYTLGGGTKLEIK | 70 | 180 | – | – | 90 | 370 | 80 | – | – | –
